Article PMC5507636 (Science Advances, 2017)

Biological target: Streptococcus pyogenes Cas9 (Streptococcus pyogenes, UniProt Q99ZW2)
Assay: cryo-EM structure

Chain of Streptococcus pyogenes Cas9 (Q99ZW2 whole entry): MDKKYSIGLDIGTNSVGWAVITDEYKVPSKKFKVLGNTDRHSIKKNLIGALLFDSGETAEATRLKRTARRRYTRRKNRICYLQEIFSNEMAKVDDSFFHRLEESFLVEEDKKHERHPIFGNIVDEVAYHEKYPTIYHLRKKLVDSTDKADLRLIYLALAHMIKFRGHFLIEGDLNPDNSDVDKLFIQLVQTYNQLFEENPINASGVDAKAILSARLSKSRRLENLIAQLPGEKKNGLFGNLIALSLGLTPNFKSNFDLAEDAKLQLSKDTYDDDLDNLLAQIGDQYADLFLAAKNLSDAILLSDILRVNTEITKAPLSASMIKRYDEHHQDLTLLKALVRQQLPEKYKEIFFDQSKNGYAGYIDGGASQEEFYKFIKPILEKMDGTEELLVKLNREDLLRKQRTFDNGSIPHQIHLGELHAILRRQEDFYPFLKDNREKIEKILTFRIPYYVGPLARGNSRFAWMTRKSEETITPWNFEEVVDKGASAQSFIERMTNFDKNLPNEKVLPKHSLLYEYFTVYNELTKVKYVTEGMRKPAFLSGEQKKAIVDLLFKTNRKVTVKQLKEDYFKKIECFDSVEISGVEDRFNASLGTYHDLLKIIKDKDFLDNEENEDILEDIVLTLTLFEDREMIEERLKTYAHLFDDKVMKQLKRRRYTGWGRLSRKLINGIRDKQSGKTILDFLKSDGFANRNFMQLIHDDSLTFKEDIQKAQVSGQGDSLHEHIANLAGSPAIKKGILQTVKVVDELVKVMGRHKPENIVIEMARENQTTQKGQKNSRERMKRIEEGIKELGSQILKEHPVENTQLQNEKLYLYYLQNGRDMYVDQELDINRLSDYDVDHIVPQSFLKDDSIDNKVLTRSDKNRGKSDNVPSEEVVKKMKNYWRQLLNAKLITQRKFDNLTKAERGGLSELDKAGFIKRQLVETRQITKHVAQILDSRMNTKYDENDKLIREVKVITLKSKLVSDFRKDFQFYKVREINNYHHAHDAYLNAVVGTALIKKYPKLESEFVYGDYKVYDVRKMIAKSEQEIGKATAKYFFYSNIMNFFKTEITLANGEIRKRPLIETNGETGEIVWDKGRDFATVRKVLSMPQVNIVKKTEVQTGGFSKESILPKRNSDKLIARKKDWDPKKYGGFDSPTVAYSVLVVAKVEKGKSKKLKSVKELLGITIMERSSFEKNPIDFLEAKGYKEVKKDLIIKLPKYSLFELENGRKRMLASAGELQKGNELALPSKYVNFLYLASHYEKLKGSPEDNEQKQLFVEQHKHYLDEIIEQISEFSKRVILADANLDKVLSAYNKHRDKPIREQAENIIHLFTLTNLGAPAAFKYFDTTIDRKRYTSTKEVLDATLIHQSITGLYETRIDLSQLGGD

B1: anti-CRISPR protein AcrIIA4 (natural protein)
chain: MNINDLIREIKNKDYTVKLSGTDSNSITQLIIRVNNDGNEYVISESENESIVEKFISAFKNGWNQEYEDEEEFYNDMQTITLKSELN
stoichiometry N: 1
